Reference: article PMC9035363 (Cell Reports, 2022)
Where two headings read alike, the source gives them in different places.

Legend:
[1] = target: SARS-CoV-2 RBD (monomeric) (SARS-CoV-2, Wuhan reference …, UniProt P0DTC2); assay: SPR
[2] = target: T1, SARS-CoV-2 S protein, wild type, on CHO cells (SARS-CoV-2, Wuhan (GenBank MN908947.3), UniProt P0DTC2); assay: cell-based or functional assay
[3] = target: T1, SARS-CoV-2 S protein, wild type, on CHO …; assay: cell-based or functional assay; remark: listed apart in the source
[4] = target: T2, RBD-Fc, reference sequence (SARS-CoV-2, Wuhan reference …, UniProt P0DTC2); assay: SPR
[5] = target: T2, RBD-Fc, reference sequence; assay: SPR; remark: listed apart in the source

Binder	Kd [1]	PRNT, Italy-INMI1 isolate, combination study, LY-CoV1404 alone, IC50 [2]	PRNT, authentic Italy-INMI1 isolate, IC50 [2]	PRNT, authentic WA isolate, IC50 [2]	authentic SARS-CoV-2/MT020880.1 neutralisation, IFA, IC50 (S-ACE2) [3]	Kd [4]	Kd [5]
LY-CoV1404 (bebtelovimab), full-length human IgG1 mAb (antibody, V domains shown) VH: QITLKESGPTLVKPTQTLTLTCTFSGFSLSISGVGVGWLRQPPGKALEWLALIYWDDDKRYSPSLKSRLTISKDTSKNQVVLKMTNIDPVDTATYYCAHHSISTIFDHWGQGTLVTVSS VL: QSALTQPASVSGSPGQSITISCTATSSDVGDYNYVSWYQQHPGKAPKLMIFEVSDRPSGISNRFSGSKSGNTASLTISGLQAEDEADYYCSSYTTSSAVFGGGTKLTVL	1.58 nM	0.015 µg/mL	0.01 µg/mL	0.002 µg/mL	0.009 to 0.0221 µg/mL		
LY-CoV1404 Fab (papain digestion) (Fab, V domains shown) VH: QITLKESGPTLVKPTQTLTLTCTFSGFSLSISGVGVGWLRQPPGKALEWLALIYWDDDKRYSPSLKSRLTISKDTSKNQVVLKMTNIDPVDTATYYCAHHSISTIFDHWGQGTLVTVSS VL: QSALTQPASVSGSPGQSITISCTATSSDVGDYNYVSWYQQHPGKAPKLMIFEVSDRPSGISNRFSGSKSGNTASLTISGLQAEDEADYYCSSYTTSSAVFGGGTKLTVL						4.01 nM	3.71 nM
